Publication PMC3663513

Biological target: Pseudo-nitzschia multiseries ferritin (Pseudo-nitzschia multiseries)
Assay: crystal structure; crystals of PmFTN grown by vapor diffusion (0.1 M sodium acetate pH 5.5, ammonium sulfate, NaCl), aerobic or anaerobic, soaked in 2 mM Fe(II) or 2 mM zinc sulfate; 24-mer shell built from 8 (P23) or 6 (P42(1)2) subunits in the asymmetric unit

Pseudo-nitzschia multiseries ferritin (natural protein)
stoichiometry N: 24 subunits
